Test results: the supplement of paper PMC9732359
± gives the uncertainty stated by the source.

Test: protein stability index of a GFP-peptide fusion (yeast GPS) (PSI 1-4); higher = more stable; sorted into four equal gates, so the index is relative within each strain
In short: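 The protein stability index combines read frequencies across sorting gates, each weighted by its gate number and then summed. To obtain those frequencies, a pooled yeast library of GFP fusions to tiled 17-residue yeast protein peptides, on a plasmid also expressing Cherry, was grown to mid-log phase in leucine-free medium. The cells were sorted into four equal gates by GFP/Cherry ratio before plasmid amplification by PCR and Illumina sequencing.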

Sequence | protein stability index (doa10∆) | protein stability index (pdr5∆) | protein stability index (san1∆) | protein stability index (ubr1∆)
LKGIQEFGADWYKVAKN [SWI3] | 3.25 ± 0.071 | 3.34 ± 0.072 | 3.37 ± 0.043 | 3.34 ± 0.057
WIAMRREKRDRTHFKRM [PRP8] | 1.99 ± 0.079 | 2.54 ± 0.078 | 2.04 ± 0.2 | 1.93 ± 0.065
LSDYNIQKESTLHLVLR [RPS31] | 2.78 ± 0.08 | 2.72 ± 0.051 | 2.23 ± 0.065 | 2.58 ± 0.058
HGKASRQQYYSGVQVGG [SNF6] | 2.43 ± 0.061 | 2.8 ± 0.063 | 2.61 ± 0.052 | 2.21 ± 0.05
IHKIQNDNNLKKLESQE [RPN5] | 3.08 ± 0.2 | 3 ± 0.17 | 2.85 ± 0.11 | –
HLIKCFFKITLQRASSK [ITC1] | 1.38 ± 0.073 | 1.19 ± 0.047 | 1.18 ± 0.12 | 1.08 ± 0.051
NLATKGMVKLNEYPVAD [REC8] | 2.85 ± 0.071 | 1.52 ± 0.05 | 1.46 ± 0.074 | 1.57 ± 0.058
HDTLNNEIANSIIQSKQ [BRR2] | 2.76 ± 0.051 | 2.95 ± 0.064 | 2.88 ± 0.058 | 2.88 ± 0.052
EHKTPELISFKERTKSL [YIL149C/MLP2] | 2.85 ± 0.066 | 2.95 ± 0.076 | 2.93 ± 0.076 | 3.22 ± 0.079
ITPSAMKLVPSIPPATI [RPB5] | 2.32 ± 0.054 | 2.56 ± 0.069 | 2.35 ± 0.057 | 2.5 ± 0.054
KETWLHELSSSHTSLVK [SRB8] | 1.81 ± 0.05 | 2.04 ± 0.056 | 1.87 ± 0.083 | 1.8 ± 0.055
TKRQKHFAWLPTHIWNA [POP1] | 2.03 ± 0.031 | 1.82 ± 0.036 | 1.55 ± 0.05 | 1.74 ± 0.021
YDDFIYLSDLKQFFQMT [PCI8] | 2.5 ± 0.075 | 2.89 ± 0.073 | 2.61 ± 0.084 | 2.87 ± 0.051
QESFVPNSERSGTPTLK [YOR098C/NUP1] | 3.03 ± 0.16 | 2.25 ± 0.15 | – | 1.79 ± 0.19
ESKSDDNSATSYYELET [RRI1] | 3.25 ± 0.084 | 3.24 ± 0.059 | 3.13 ± 0.067 | 3.19 ± 0.057
SARGSYLRVSFKNTRET [RPL17A] | 3.1 ± 0.048 | 2.82 ± 0.056 | 2.77 ± 0.051 | 2.86 ± 0.06
YLFDEIDAALDKQYRTA [SMC3] | 2.88 ± 0.091 | 2.77 ± 0.097 | 2.61 ± 0.1 | 3.12 ± 0.064
LLNTDHTLDPSLLESGS [RPO21] | 2.93 ± 0.085 | 2.94 ± 0.099 | 2.99 ± 0.079 | 3.17 ± 0.059
KYPIFTGESWVKLTYNS [YDL088C/ASM4] | 1.82 ± 0.049 | 2.07 ± 0.068 | 2.07 ± 0.1 | 2.34 ± 0.058
PLPTPFKVDDNVDFPSA [RPN2] | 2.94 ± 0.054 | 2.75 ± 0.043 | 2.6 ± 0.074 | 2.63 ± 0.052
ASISLPNHIPSVNPSNK [SWP82] | 2.99 ± 0.1 | 3.05 ± 0.069 | 3.01 ± 0.075 | 3.12 ± 0.054
RIMSRNFYLKRFISDLL [SWI1] | 2.32 ± 0.058 | 2.37 ± 0.074 | 2.08 ± 0.095 | 1.54 ± 0.034
ADVHFLDCDGGFIDASC [RRP45] | 3.12 ± 0.09 | 2.9 ± 0.098 | 3.14 ± 0.055 | 2.9 ± 0.054
YQMQSNYESVFTYNKFL [YIL149C/MLP2] | 1.29 ± 0.043 | 1.23 ± 0.028 | 1.55 ± 0.14 | 1.5 ± 0.048
FGNSSPQLTFTHVANFM [YML103C/NUP188] | 2.97 ± 0.096 | 3.03 ± 0.08 | 3.04 ± 0.054 | 2.92 ± 0.052
ANFGEILEDFRVIKDFK [YMR153W/NUP53] | 3.07 ± 0.14 | 3.4 ± 0.16 | 3.37 ± 0.068 | 3.28 ± 0.096
